Experimental data reported in article PMC3754917.

Target: transcobalamin saturated with vitamin B12 (holoTC) (human (endogenous in serum)) (UniProt P20062)
Test: co-IP; serum samples of 6 pregnant women (weeks 15, 25 and 35) exposed to anti-TC coated magnetic beads; sCD320 measured by in-house sandwich ELISA before and after the precipitation

UniProt P20062, sequence (P20062 19-427): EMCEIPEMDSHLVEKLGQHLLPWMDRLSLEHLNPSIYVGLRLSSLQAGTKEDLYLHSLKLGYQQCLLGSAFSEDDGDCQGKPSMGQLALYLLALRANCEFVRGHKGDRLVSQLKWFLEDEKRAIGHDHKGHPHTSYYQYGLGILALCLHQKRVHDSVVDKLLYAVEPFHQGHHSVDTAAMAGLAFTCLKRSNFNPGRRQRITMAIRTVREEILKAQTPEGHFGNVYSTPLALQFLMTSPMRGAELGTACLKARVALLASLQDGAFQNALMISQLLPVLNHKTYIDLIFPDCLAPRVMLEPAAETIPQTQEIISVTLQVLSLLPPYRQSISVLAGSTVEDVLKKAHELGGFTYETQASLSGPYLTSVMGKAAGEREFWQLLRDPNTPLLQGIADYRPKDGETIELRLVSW

With “soluble CD320 (sCD320), soluble receptor for transcobalamin-vitamin B12 (from UniProt Q9NPF0 36-229)” the percent of sCD320 removed by precipitation with antibodies against TC (week 15, median) was 36%, the percent of sCD320 removed by precipitation with antibodies against TC (week 25, median) was 36% and the percent of sCD320 removed by precipitation with antibodies against TC (week 35, median) was 40%. The stoichiometry N was 1.
